Reference: patent publication US5817484A, “Thermoresistant α-1-antitrypsin mutein” (priority 1993, dated 1998)

Columns and labels:
elastase [1] = test: Association constant to elastase (Beatty's method); format: biochemical
Experimental: (§1) Specifically, the AT's activity to inhibit elastase was evaluated by: mixing elastase and AT extract to react them, adding thereto a substrate (prepared by dissolving succinyl-alanyl-alanyl-alanyl-para-nitroanilide (SIGMA S4760) in dimethyl sulfoxide) and measuring the change of absorbency at 410 nm to determine the residual elastase activity. The thermal stability of AT was estimated by determining its activity of inhibiting elastase, using AT treated at 55° C. in case cell extract is used or at 57° to 58° C. in case a purified AT is used. As controls, a wild-type AT produced in E. coli or yeast cell and natural AT isolated and purified from human plasma were used.
From the reaction mixture containing the same concentrations (8 nM) of elastase and AT, samples of the mixture were taken every minute for 10 mins. 1 mM succinyl-alanyl-alanyl-alanyl-p-nitroanilide (SIGMAS4760) was added as a substrate to each sample. The elastase activity of each sample was determined by measuring the absorbency at 410 nm, and then the association constant was calculated from the plot slope of reciprocal of elastase concentration vs time.

elastase [2] = test: Thermal inactivation of purified AT at 57-58° C., remaining elastase inhibiting activity; format: physicochemical; conditions: for half-life: purified AT
Experimental: as §1, with “The activity of AT was measured by evaluating the inhibition by AT of the elastase's activity to degrade peptides in accordance with the procedure described by Travis & Johnson in Methods in Enzymol., 80, 754 (1981). Specifically,” for “Specifically,”
The elastase inhibiting activity of AT was evaluated by using a modified method described by Travis et al. (Travis & Jonhson, Methods in Enzymol. 80, 754 (1981)). As a reaction buffer, 50 mM Tris (pH 8.0) containing 50 mM NaCl was used, and 15 mM succinyl-alanyl-alanyl-alanyl-paranitro-anilide (SIGMA S4760) dissolved in dimethyl-sulfoxide was used as a substrate for elastase. An enzyme solution was prepared by dissolving elastase to the concentration of 0.3 μM in the reaction buffer solution containing 50% glycerol.
(§2) The elastase inhibiting activity of AT was determined as follows: 10 μl of the enzyme solution, 10 to 50 μl of the AT extracts and the reaction buffer solution were mixed to make the final volume of 60 μl, and then reacted for 10 mins. After 430 μl of the reaction buffer solution and 10 μl of the substrate were added thereto, the change of absorbency at 410 nm was immediately measured for 3 mins.
For the comparison of their thermal stability, various kinds of AT muteins were incubated at 57° C., from which samples were taken every minute. Then the remaining activity of AT muteins was determined in the same manner as described in Example 1 above and their half-life and thermal inactivation rate were calculated from the slope of the plot of a logalithmic value of the remaining activity vs time (see FIG. 3).

elastase [3] = test: Thermal stability at 55° C. of AT expressed in E. coli, elastase inhibiting activity measured every minute; format: physicochemical; conditions: FIG. 8
Experimental: as §1, with “The activity of AT was measured by evaluating the inhibition by AT of the elastase's activity to degrade peptides in accordance with the procedure described by Travis & Johnson in Methods in Enzymol., 80, 754 (1981). Specifically,” for “Specifically,”, “As controls, a wild-type AT produced in E. coli or yeast cell and natural AT isolated and purified from human plasma were used.” left out
The elastase inhibiting activity of AT was evaluated by using a modified method described by Travis et al. (Travis & Jonhson, Methods in Enzymol. 80, 754 (1981)). […]
as §2

[4] = Table II, ATs produced in yeast and controls

association constant (elastase [1]; Table I, 8 nM elastase and 8 nM AT, purified AT)	Substance	association constant (elastase [1]; [4])	thermal resistance, times higher than that of the wild-type recombinant AT expressed in E. coli (elastase [2]; at 58° C.)	thermal resistance (in words) (elastase [2]; at 58° C., produced in yeast)	half-life (elastase [2]; at 58° C.)	thermoresistance, times higher than the single mutant ATs (elastase [3])	half-life (elastase [2]; at 57° C.)
	wild-type yeast AT (phenylalanine): wild-type α-1-antitrypsin produced in Saccharomyces diastaticus (pGAT11)	1.5e+06 M⁻¹ s⁻¹	5.3 times	a lower thermoresistance than that of the human plasma AT	6.9 min		
	multiple mutant AT wherein the 51st residue is leucine and the 374th is isoleucine: α-1-antitrypsin with two replacements: 51st leucine and 374th isoleucine, expressed in E. coli					at least 300 times	
1.7e+06 M⁻¹ s⁻¹	Human plasma AT: natural α-1-antitrypsin from human plasma (A9204), purified over Affi-Gel Blue and mono-Q columns	1.7e+06 M⁻¹ s⁻¹			35.2 min		49.7 min
